From US20140377262A1 come the findings set out here.

A value given as a limit tells only on which side of the number the result lay.

Test [1] has as its target HA protein of B/Victoria/2/1987 (influenza B virus B/Victoria/2/1987). Description: cell-based or functional assay.
Test [2] concerns the target HA protein of B/Shandong/7/1997 (influenza B virus B/Shandong/7/1997). Description: cell-based or functional assay.
For test [3], the target named is HA protein of B/Florida/4/2006 (influenza B virus B/Florida/4/2006). As to the kind of experiment: cell-based or functional assay.
The target in test [4] is HA protein of B/Mie/1/1993 (influenza B virus B/Mie/1/1993). As to the kind of experiment: cell-based or functional assay.
Test [5] deals with HA protein of B/Johannesburg/5/1999 (influenza B virus B/Johannesburg/5/1999). Description: cell-based or functional assay.
Test [6] has as its target HA protein of B/Shanghai/361/2002 (influenza B virus B/Shanghai/361/2002). As to the kind of experiment: cell-based or functional assay.
For test [7], the target named is HA protein of B/Yamanashi/166/1998 (influenza B virus B/Yamanashi/166/1998). Description: cell-based or functional assay.
For test [8], the target named is HA protein of B/Malaysia/2506/2004 (influenza B virus B/Malaysia/2506/2004). Description: cell-based or functional assay.
For test [9], the target named is HA protein of B/Florida/4/2006 (vaccine antigen) (influenza B virus B/Florida/4/2006).

B1: HuMAb 5A7 (human monoclonal antibody from hybridoma) (antibody, V domains shown)
VH: QVQLVESGGDVVQPGRSLRLSCAASGFTFNNYGMHWVRQAPGKGLEWVAVVWYDGLIKYYADSVKGRFTISRDNSKNTLYLQMNTLRAEDMGVYYCARDLQPPHSPYGMDVWGQGTTVTVSS
VL: QSVLTQPPSASGTPGQRVTISCSGSSSNIGSNDVYWYQNLPGTAPKLLIYNNNQRPSGVPDRFSGSKSGTSASLAISGLRSEDEADYYCAAWDDSLTVSFGTGTKVTVL
On to B1, for which the VN50 was 25 µg/mL in test [1]; 25 µg/mL in test [2]; 6.25 µg/mL in test [3]; 6.25 µg/mL in [4]; 6.25 µg/mL in [5]; 6.25 µg/mL in test [6]. The VN50 in test [7] and in test [8] was 6.25 µg/mL each time. The molecule also displayed a Fusion inhibition in test [3] of 100 µg/mL. In test [3], this molecule came in with an HI of 25 µg/mL. In [9], the equilibrium dissociation constant (Kd) was < 5.6 nM.
